Results from patent publication US20230322924A1 (Janssen / Centocor, published 2023).
Numbering of substitutions follows the chain as printed. In names and notes the source's numbering stands.

B1: C33B77 (antibody, IgG1, V domains shown)
VH: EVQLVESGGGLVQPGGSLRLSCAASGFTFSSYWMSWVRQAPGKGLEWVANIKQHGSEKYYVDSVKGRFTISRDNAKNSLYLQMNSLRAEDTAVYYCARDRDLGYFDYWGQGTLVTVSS
VL: SYELTQPPSVSVSPGQTASITCSGNKLGAKFASWYQQKPGQSPVLVIYQDNKRPSGIPERFSGSNSGNTATLTISGTQAVDEADYYCQAWDSSTVVFGGGTKLTVL
notes: huIgG1 F405L; also called C33F82; C33H72/C33L40
B2: C33B87 (antibody, IgG1, V domains shown)
VH: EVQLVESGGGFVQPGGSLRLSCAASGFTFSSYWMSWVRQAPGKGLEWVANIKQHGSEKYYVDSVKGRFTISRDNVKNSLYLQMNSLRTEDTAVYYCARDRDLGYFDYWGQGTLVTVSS
VL: B1 VL with N25D, A29N, F31Y, N51T, F61V, V80M, Y86H
notes: huIgG1 F405L; also called C33F92; C33H87/C33L35
B3: C33B124 (antibody, IgG1, V domains shown)
VH: EVQLLESGGGLVQPGGSLRLSCAASRFTFSSYAMTWVRQAPGKGLEWVSTINISGGSTYYADSVKGRFTISRDNSKNTLYLQMNSLRAEDTAVYYCTKGGYSSGPFDYWGQGTLVSVSS
VL: SYELTQPPSVSVSPGQTASITCSGDKLGDKYVRWYQQKTGQSPVLVMYQDSKRPSGIRERFYGSNSGNTATPTISGTQAVDEAEYYCQAWDSSTGVVFGGGTKLTVL
notes: huIgG1 F405L; also called C33F129; C33H73/C33L32
B4: C33B80 (antibody, IgG1, V domains shown)
VH: EVQLLESGGGLVQPGGSLRLSCAASGFTFNYAMSWVRQAPGKGLEWVSAISGSGGSTYYADSVKGRFTISRDISKNTLYLQMNSLRAEDTAVYYCARTYNSGYYDGDFDYWGQGTLVTVSS
VL: QSALTQPASVSGSPGQSIPISSTGTSSDDGKNNIVSWYQQHPGKAPKLMIYKDSKRPSGVSNRFSGSKSGNTASLTISGLQADDEADYHCCSYAGASNHVVFGGGTKLTVL
notes: huIgG1 F405L; also called C33F85; C33H76/C33L39
B5: C33B911 (antibody, V domains shown)
VH: EVQLVESGGGLVQPGRSLRLSCAASGFTFDDYAMHWVRQAPGKGLEWVSGIGWSGGSIVYADSVKGRFKISRDNAKNSLYLQMNSLRAEDTALYYCAKDSPYGDFFDYWGQGTLVTVSS
VL: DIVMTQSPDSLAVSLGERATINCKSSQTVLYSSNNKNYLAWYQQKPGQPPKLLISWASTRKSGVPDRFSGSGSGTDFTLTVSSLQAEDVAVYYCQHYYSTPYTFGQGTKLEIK
notes: OMNIMouse-derived anti-CD33 mAb; same V regions as C33B903; also called C33H251/C33L117; C33F549
B6: C33B913 (antibody, V domains shown)
VH: EVQLLESGGGLVQPGGSLKLSCTASGFTFRSYAMSWVRQAPGKGLEWVSAINGYGDGRYYADSVKGRFTISRDNSKNTLYLQMNSLRAEDTAVYSCAKDQGFGELFFDYWGQGTLVTVSS
VL: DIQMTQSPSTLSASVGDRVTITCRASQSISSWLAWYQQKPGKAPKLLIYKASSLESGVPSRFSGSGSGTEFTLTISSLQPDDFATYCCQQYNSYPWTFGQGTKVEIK
notes: OMNIMouse-derived anti-CD33 mAb; same V regions as C33B905; also called C33H253/C33L119; C33F551
B7: C33B914 (antibody, V domains shown)
VH: QVQLVESGGGVVQPGRSLRLSCAASGFTFSYYGMHWVRQAPDKGLEWVAVIWFDGNNKYYADSVKGRFTISRDNSKNTLYLQMNSLRAEDTAVYYCARDRELLFDYWGQGTLVTVSS
VL: SYELTQPPSVSVSPGQTASITCSGDELGDMYACWYQQKPGQSPLVVIYQDSKRPSGIPERFSGSNSGNTATLTISGTQAMDEAAYYCQTWDTRIAVFGGGTNLTVL
notes: OMNIMouse-derived anti-CD33 mAb; same V regions as C33B906; also called C33H254/C33L120; C33F552
B8: C33B915 (antibody, V domains shown)
VH: EVQLVESGGGLVQPGRSLRLSCAASGFTFDDYAMHWVRQVPGEGLEWVSGISWNGGDMVYADSVKGRFTISRDNAKNSLYLQMNSLRPEDTALYYCVKDMPYFDFLTGSDYYYYGMDVWGQGTTVTVSS
VL: SYELTQPPSVSVSPGQTASITCSGDNLGNEHVCWYHQKPGQSPVLVIYQNNKRPSGIPERFSGSNSGNTATLSISGTQATDEADYYCQAWDSTTAVFGGGTKLTVL
notes: OMNIMouse-derived anti-CD33 mAb; same V regions as C33B907; also called C33H255/C33L121; C33F553

Target: T1, Cyno CD33 full length, expressed on HEK293F cells (cynomolgus monkey)
T1 construct: HEK293F cells transduced with lentivirus containing full length cyno CD33 (Genbank XP_005590138.1); also called cyCD33
Test: flow cytometry, HEK293F cells expressing cyno CD33

Binder	MFI at 0 nM mAb (background) [MFI]	MFI at 0.6 nM mAb [MFI]	MFI at 6 nM mAb [MFI]	MFI at 60 nM mAb [MFI]
B1	85.2	3600	11700	17500
B2	103	3270	12700	19600
B3	98.4	77.3	132	593
B4	82.4	109	249	4610

Target: T2, Human CD33 full length, expressed on HEK293F cells (human, UniProt P20138 18-364)
T2 construct: HEK293F cells transduced with lentivirus containing full length human CD33; also called huCD33
T2 sequence (P20138 18-364 limits assumed): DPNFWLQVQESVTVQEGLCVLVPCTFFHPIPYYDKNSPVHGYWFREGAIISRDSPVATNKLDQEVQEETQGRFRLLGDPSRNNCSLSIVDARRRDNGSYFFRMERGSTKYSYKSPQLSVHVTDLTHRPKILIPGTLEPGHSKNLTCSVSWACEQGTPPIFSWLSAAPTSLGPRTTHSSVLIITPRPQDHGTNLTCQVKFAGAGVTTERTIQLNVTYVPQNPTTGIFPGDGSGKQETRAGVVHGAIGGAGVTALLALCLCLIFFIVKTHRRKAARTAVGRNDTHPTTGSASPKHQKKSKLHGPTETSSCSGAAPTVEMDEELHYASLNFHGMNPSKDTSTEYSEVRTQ
Test: flow cytometry, HEK293F cells expressing human CD33

Binder	MFI at 0 nM mAb (background) [MFI]	MFI at 0.6 nM mAb [MFI]	MFI at 6 nM mAb [MFI]	MFI at 60 nM mAb [MFI]
B1	69.5	11500	88700	242000
B2	73.7	12500	79500	242000
B3	172	90.3	126	798
B4	88.9	115	410	5800

Target: T3, Cyno CD33 full length (cynomolgus monkey)
T3 construct: also called cyCD33
Test: flow cytometry on HEK293F cells expressing cyno CD33
Description: (§1) The purified antibodies were assessed for binding to stably transfected HEK293F cells expressing human CD33 or cyno CD33 (generation described above) along with the parental HEK293F as negative control. Cells were harvested from tissue culture flasks using non-enzymatic dissociation buffer (Thermo Scientific). The flasks were rinsed twice with PBS and dissociation buffer was added to the flask, and the flask was incubated for 10 minutes at 37° C. until the cells became non-adherent. The cells were centrifuged at 300 g for 5 minutes and resuspended at 1.0×10⁶ cells/ml in staining buffer (Becton Dickinson; Franklin Lakes, NJ). 50,000 cells/well of each cell type was plated in 50 μl of staining buffer in round bottom plates (Becton Dickinson). […] 100 μl staining buffer was added to all wells of each plate, the plates were spun at 300 g for 5 min, the buffer was removed, 200 μl staining buffer was added to all wells of each plate, the plates were spun at 300 g for 5 min, and the buffer was removed. 50 μl of 2 μg/ml of Goat-anti-human Fc AF647 secondary antibody (Jackson Immunoresearch; West Grove, PA) was added to all wells of the plates, and the plates were incubated for 30 min at 4° C. 100 μl staining buffer was added to all wells of the plates, the plates were spun at 300 g for 5 min, and the buffer was removed. 200 μl running buffer (running buffer is Staining buffer, 1 mM EDTA, 0.1% Pluronic Acid) was added to all wells of the plates, the plates were spun at 300 g for 5 min, and the buffer was removed. 30 μl running buffer containing Sytox Green live/dead dye (ThermoFisher) was added to all wells with cells and the plates were read on an iQue IntelliCyt flow cytometer. Cells were gated on forward vs. side scatter to eliminate debris, then on singlets and then on live cells which excluded the Sytox stain. Antibody binding was assessed by the mean fluorescence intensity in the AF647 channel.
(§2) The OmniMouse panel (8 mAbs total) was generated separately and characterized further for binding to cells.

Binder	MFI at 0 nM (background) [MFI]	MFI at 0.6 nM [MFI]	MFI at 6 nM [MFI]	MFI at 60 nM [MFI]
B5	97.9	1940	7730	17000
B6	106	35200	36900	40700
B7	86.8	22100	33400	45000
B8	114	36200	35700	37500

Target: T4, Human CD33 full length (human, UniProt P20138 18-364)
T4 construct: also called huCD33
T4 sequence (P20138 18-364 limits assumed): as above
Test: flow cytometry on HEK293F cells expressing human CD33
Description: as §1, §2

Binder	MFI at 0 nM (background) [MFI]	MFI at 0.6 nM [MFI]	MFI at 6 nM [MFI]	MFI at 60 nM [MFI]
B5	114	13500	100000	238000
B6	128	205000	409000	519000
B7	185	153000	315000	304000
B8	112	138000	363000	390000

Target: T5, Cyno CD33 ECD-HSA (cynomolgus monkey)
T5 construct: Cyno CD33 extracellular domain fused to monomeric human serum albumin and a six-histidine tag; also called C33W1
Test: ProteOn SPR, mAb captured by anti-human Fc, 1:1 Langmuir fit

Binder	Kd [nM]	koff [s⁻¹]	kon [M⁻¹ s⁻¹]
B1	0.247	0.000266	1.08e+06
B2	0.236	0.000264	1.12e+06
B3	1.01	0.000472	467000
B4	0.527	0.000259	492000

Target: Human CD33 ECD-HSA (human)
Test: as above

Binder	Kd [nM]	koff [s⁻¹]	kon [M⁻¹ s⁻¹]
B1	0.32	0.000262	828000
B2	0.6	0.000432	720000
B3	0.35	0.000124	357000
B4	1.32	0.000425	323000

Target: T6, Human CD33 ECD-HSA (human)
T6 construct: CD33 ECD fused at the C-terminus to monomeric HSA (C58S) and a six-histidine tag; also called C33W2; huCD33 ECD-HSA
Test: ProteOn SPR, mAb captured on anti-human Fc, antigen as analyte
Description: (§3) The panel of mAbs was then further characterized for full affinity analysis as well as epitope binning. The binding of anti-CD33 mAbs to recombinant human CD33 ECD-HSA (C33W2) and cyno CD33 ECD-HSA (C33W1) was measured by ProteOn SPR (Bio-Rad). […] Different mAbs were captured on the anti-human Fc IgG surface at 0.25 or 0.5 μg/ml (160-300 RU) in vertical ligand orientation, with the 6th ligand channel as no ligand surface control. Human and cyno CD33-HSA proteins at 0.3 μM concentration in 3-fold dilution series of 5 concentrations flew in as analyte to bind to captured mAbs in the horizontal orientation. A buffer sample was also injected in the 6th channel to monitor the dissociation of captured mAb and baseline stability. […] The raw biding data were processed by double referencing after subtracting the response data from: 1) the inter-spot to correct for the non-specific interactions between the Ag and the empty chip surface; 2) the buffer channel to correct for baseline drifting due to the dissociation of captured mAb surface over time. The processed data at all antigen concentrations for each mAb were globally fit to a 1:1 simple Langmuir binding model to extract estimates of the kinetic (kₒₙ, koff) and affinity (Kd) constants.

Binder	Kd [nM]	koff [s⁻¹]	kon [M⁻¹ s⁻¹]
B5	0.0378	4.14e-05	1.1e+06
B6	0.969	0.00064	660000
B7	22.1	0.0098	444000
B8	4.53	0.000989	218000

Target: T7, Cyno CD33 ECD-HSA (cynomolgus monkey)
T7 construct: Cyno CD33 ECD fused to HSA and a six-histidine tag; also called C33W1
Test: as above
Description: as §3

Binder	Kd [nM]	koff [s⁻¹]	kon [M⁻¹ s⁻¹]
B5	1	0.00115	1.15e+06
B6	0.12	0.000308	2.56e+06
B7	0.44	0.000233	529000
B8	0.0234	8.93e-05	3.81e+06

Target: Human CD33 ECD-HSA (human)
Test: SPRi off-rate screen (IBIS MX96), mAb captured by anti-human Fc; column head prints KD

Binder	koff [s⁻¹]
B1	0.000337
B2	0.000352
B3	0.000238
B4	0.000384

Target: T5, Cyno CD33 ECD-HSA
Test: SPRi off-rate screen (IBIS MX96), mAb captured by anti-human Fc; column head prints Cyno CD33 binding KD

Binder	koff [s⁻¹]
B1	0.000418
B2	0.000228
B3	0.000477
B4	0.000266
